Legend:
[1] = biological target: full-length avian ANP32A (Gallus gallus) (Gallus gallus); experiment: NMR titration
[2] = biological target: LRR of ANP32A alone (not stated (human and Gallus gallus ANP32A were used)); experiment: NMR titration

“627-NLS domains of PB2, E627 form (amino acids 538-759, avian H5N1 A/duck/Shantou/4610/2003) (domain or fragment)” showed a Kd [1] of over 3000 µM.

For “the 627 domain (E627 or K627 not stated) (domain or fragment)”, the Kd [2] was over 1500 µM.

From PMC7374565
